Columns and labels:
[1] = target: T1, recombinant SMase D LiD1 from L. intermedia (Loxosceles intermedia, UniProt P0CE81); test: ELISA; settings: both partners purified
T1 construct: also called rLiD1; recombinant sphingomyelinase D

[2] = target: T1, recombinant SMase D LiD1 from L. …; test: SPR; settings: both partners purified

T1 sequence (P0CE81 27-306): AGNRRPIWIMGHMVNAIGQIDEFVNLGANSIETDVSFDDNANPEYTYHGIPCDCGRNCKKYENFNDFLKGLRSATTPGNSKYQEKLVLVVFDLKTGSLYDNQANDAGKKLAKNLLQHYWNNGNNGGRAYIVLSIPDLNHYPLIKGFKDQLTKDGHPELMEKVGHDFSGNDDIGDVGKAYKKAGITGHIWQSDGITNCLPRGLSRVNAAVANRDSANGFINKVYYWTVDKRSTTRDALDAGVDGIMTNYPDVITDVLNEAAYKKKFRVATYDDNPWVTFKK

Binder | binding result [1] | Kd [2] [nM] | koff [2] [s⁻¹] | kon [2] [M⁻¹ s⁻¹]
scFv15hLi7m (scFv, V domains shown, also called second generation of the humanized scFv; monomeric scFv) VH: QVQLQQSGAEVKKPGASVKVSCKASGYAFSSSWMNWVRQAPGQGLEWMGRIYPGDGDTNYNQKFQGRVTMTRDTSTSTVYMELSSLRSEDTAVYFCARWTYGYSKYYYFDDWGQGTLVTVSS VL: DIQMTQSPSSLSASVGDRVTITCRASQSLLWNVNENNYLSWYQQKQGKAPKLLIYGASILESGVPSRFSGSGSGTDFTLTISSLQPEDFATYYCQHNHGSFLPYTFGQGTKLEIK | binds | – | – | –
scFv5hLi7m (scFv, V domains shown, also called (scFv5hLi7m)2; dimeric scFv5hLi7m) VH: QVQLQQSGAEVKKPGASVKVSCKASGYAFSSSWMNWVRQAPGQGLEWMGRIYPGDGDTNYNQKFQGRVTMTRDTSTSTVYMELSSLRSEDTAVYFCARWTYGYSKYYYFDDWGQGTLVTVSS VL: DIQMTQSPSSLSASVGDRVTITCRASQSLLWNVNENNYLSWYQQKQGKAPKLLIYGASILESGVPSRFSGSGSGTDFTLTISSLQPEDFATYYCQHNHGSFLPYTFGQGTKLEIK | binds | – | – | –
scFv15hLi7 (scFv, V domains shown, also called humanized scFv; first generation of the humanized scFv) VH: QVQLQQSGAEVKKPGASVKVSCKASGYAFSSSWMNWVRQAPGQGLEWMGRIYPGDGDTNYNQKFQGRVTMTRDTSTSTVYMELSSLRSEDTAVYYCARWTYGYSKYYYFDDWGQGTLVTVSS VL: DIQMTQSPSSLSASVGDRVTITCRASQSLLWNVNENNYLSWYQQKPGKAPKLLIYGASILESGVPSRFSGSGSGTDFTLTISSLQPEDFATYYCQHNHGSFLPYTFGQGTKLEIK | – | 56.6 | 0.0103 | 182000

— publication PMC7232456, “Loxoscelism: Advances and Challenges in the Design of Antibody Fragments with Therapeutic Potential” (Toxins, 2020)
